What was measured:
Conditions in all cases: both partners purified
[1] = molecular target: T1, UAF1 (USP1-associated factor 1) (human, UniProt Q8TAF3 1-677); experiment: SEC; USP1 and UAF1 alone or together at 15 μM, 15 min on ice; SD200 Increase (10/300); 20 mM Tris pH 8.0, 150 mM NaCl, 5% glycerol, 5 mM DTT; fractions on SDS-PAGE, Coomassie
T1 construct: UAF1 (USP1-associated factor 1), human; N-terminal His-3C tag; the methods say tags were removed except from FANCD2, FANCI, USP2 and GST-ubiquitin; source: Sf21 (baculovirus), purified (Ni-NTA, anion exchange, SEC); not shown: His, N-terminal, cleaved

[2] = molecular target: T2, UAF1 with an N-terminal Strep tag (human, UniProt Q8TAF3 1-677); experiment: pull-down; N-terminal Strep-tagged UAF1 complexed with E. coli USP1, 10 μg bound to MagStrep beads and washed; 10 μg recombinant substrate, 1 h on ice; 50 mM Tris pH 7.5, 120 mM NaCl, 5% glycerol, 1 mM DTT, 0.01% Triton X-100, 0.01% ovalbumin; SDS-PAGE; beads without USP1–UAF1 as control
T2 construct: UAF1 (USP1-associated factor 1), human; Strep11 tag and linker GGSGGS were added N-terminal of the His-3C tag; as the Strep tag is used for capture, the His-3C stretch was probably kept too (surmise); also called Strep-tagged UAF1; N-terminal Strep-tagged UAF1; source: Sf21 (baculovirus), purified; not shown: Strep11, N-terminal, kept

[3] = molecular target: T3, human PCNA-K164Ub (hsPCNA-Ub) (human | , UniProt P12004 1-261; P0CG48 1-76, K164 monoubiquitinated (isopeptide bond to ubiquitin) | C-terminus linked to K164 of PCNA); experiment: as above
T3 construct: PCNA, human; ubiquitin; Covalent conjugate; also called monoubiquitinated PCNA

[4] = molecular target: T4, human FANCD2 (hsFANCD2), non-ubiquitinated (human, UniProt Q9BXW9 1-1451); experiment: as above
T4 construct: FANCD2 (Fanconi anemia group D2 protein), human, full length; gene synthesised and optimised for Spodoptera frugiperda; His-3C tag; tags were not removed from FANCD2; also called Fanconi anemia group D2 protein; source: Sf21 (baculovirus), purified (Ni-NTA, anion exchange, SEC)

B1: USP1^ΔNΔ1Δ2 (Δ1–54, Δ229–408, Δ608–737), Sf21-expressed (domain or fragment, human, UniProt O94782 55-785, looked up)
chain: SEIDQVVPAAQSSPINCEKRENLLPFVGLNNLGNTCYLNSILQVLYFCPGFKSGVKHLFNIISRKKEALKDEANQKDKGNCKEDSLASYELICSLQSLIISVEQLQASFLLNPEKYTDELATQPRRLLNTLRELNPMYEGYLQHDAQEVLQCILGNIQETCQLLKKEEVKNVAENEVKPINKGEEQIGFELVEKLFQGQLVLRTRCLECESLTERREDFQDISVPVQEDELSKVEESSEISPEPKTEMKTLRWAISQFASVERIVGEDKYFCENCHHYTEAERSLLFDKMPEVITIHLKCFAASGLEFDCYGGGLSKINTPLLTPLKLSLEEWSTKPTNDSYGLFAVVMHSGITISSGHYTASVKVTDLNSLEQSLKEYEGKWLLFDDSEVKVTEEKDFLNSLSPSTSPTSTPYLLFYKKL
notes: USP1, human; N-terminus (Δ1–54), Insertion 1 (Δ229–408) and Insertion 2 (Δ608–737) deleted in the full-length background; the G670A/G671A site lies in the deleted Insertion 2; also called minimal USP1 catalytic domain; catalytic domain of USP1; source: Sf21 (baculovirus), purified (Ni-NTA, anion exchange, SEC)
[1]
  binding result: binds

B2: USP1^ΔNΔ1Δ2 (Δ1–54, Δ229–408, Δ608–737), E. coli-expressed (domain or fragment, human, UniProt O94782 55-785, looked up)
chain: SEIDQVVPAAQSSPINCEKRENLLPFVGLNNLGNTCYLNSILQVLYFCPGFKSGVKHLFNIISRKKEALKDEANQKDKGNCKEDSLASYELICSLQSLIISVEQLQASFLLNPEKYTDELATQPRRLLNTLRELNPMYEGYLQHDAQEVLQCILGNIQETCQLLKKEEVKNVAENEVKPINKGEEQIGFELVEKLFQGQLVLRTRCLECESLTERREDFQDISVPVQEDELSKVEESSEISPEPKTEMKTLRWAISQFASVERIVGEDKYFCENCHHYTEAERSLLFDKMPEVITIHLKCFAASGLEFDCYGGGLSKINTPLLTPLKLSLEEWSTKPTNDSYGLFAVVMHSGITISSGHYTASVKVTDLNSLEQSLKEYEGKWLLFDDSEVKVTEEKDFLNSLSPSTSPTSTPYLLFYKKL
notes: USP1, human; Δ1–54, Δ229–408, Δ608–737; also called E. coli–expressed USP1^ΔNΔ1Δ2; source: E. coli BL21, purified (GSH resin, SEC)
[2]
  binding result: binds

B3: USP1^ΔNΔ1Δ2–UAF1 complex (Strep-tagged UAF1) (complex)
chain 1: SEIDQVVPAAQSSPINCEKRENLLPFVGLNNLGNTCYLNSILQVLYFCPGFKSGVKHLFNIISRKKEALKDEANQKDKGNCKEDSLASYELICSLQSLIISVEQLQASFLLNPEKYTDELATQPRRLLNTLRELNPMYEGYLQHDAQEVLQCILGNIQETCQLLKKEEVKNVAENEVKPINKGEEQIGFELVEKLFQGQLVLRTRCLECESLTERREDFQDISVPVQEDELSKVEESSEISPEPKTEMKTLRWAISQFASVERIVGEDKYFCENCHHYTEAERSLLFDKMPEVITIHLKCFAASGLEFDCYGGGLSKINTPLLTPLKLSLEEWSTKPTNDSYGLFAVVMHSGITISSGHYTASVKVTDLNSLEQSLKEYEGKWLLFDDSEVKVTEEKDFLNSLSPSTSPTSTPYLLFYKKL
chain 2: not shown
notes: USP1, human; Δ1–54, Δ229–408, Δ608–737; as m9; UAF1, human; as m7; Bait complex formed beforehand and held on MagStrep beads; source: E. coli USP1^ΔNΔ1Δ2 complexed with Sf21 Strep-UAF1, both purified; not shown: Strep11, N-terminal, kept
[3]
  binding result: binds

B4: USP1^Δ1Δ2-R22K–UAF1 complex (Strep-tagged UAF1) (complex)
chain 1: MPGVIPSESNGLSRGSPSKKNKLSLKFFQKKETKRALDFTDSQENEEKASEYRASEIDQVVPAAQSSPINCEKRENLLPFVGLNNLGNTCYLNSILQVLYFCPGFKSGVKHLFNIISRKKEALKDEANQKDKGNCKEDSLASYELICSLQSLIISVEQLQASFLLNPEKYTDELATQPRRLLNTLRELNPMYEGYLQHDAQEVLQCILGNIQETCQLLKKEEVKNVAENEVKPINKGEEQIGFELVEKLFQGQLVLRTRCLECESLTERREDFQDISVPVQEDELSKVEESSEISPEPKTEMKTLRWAISQFASVERIVGEDKYFCENCHHYTEAERSLLFDKMPEVITIHLKCFAASGLEFDCYGGGLSKINTPLLTPLKLSLEEWSTKPTNDSYGLFAVVMHSGITISSGHYTASVKVTDLNSLEQSLKEYEGKWLLFDDSEVKVTEEKDFLNSLSPSTSPTSTPYLLFYKKL
chain 2: not shown
notes: USP1, human; Δ229–408, Δ608–737, R22K; as m11; UAF1, human; as m7; source: E. coli USP1^Δ1Δ2-R22K complexed with Sf21 Strep-UAF1, both purified; not shown: Strep11, N-terminal, kept
[4]
  binding result: binds

B5: USP1^Δ1Δ2-L25A–UAF1 complex (Strep-tagged UAF1) (complex)
chain 1: MPGVIPSESNGLSRGSPSKKNRLSAKFFQKKETKRALDFTDSQENEEKASEYRASEIDQVVPAAQSSPINCEKRENLLPFVGLNNLGNTCYLNSILQVLYFCPGFKSGVKHLFNIISRKKEALKDEANQKDKGNCKEDSLASYELICSLQSLIISVEQLQASFLLNPEKYTDELATQPRRLLNTLRELNPMYEGYLQHDAQEVLQCILGNIQETCQLLKKEEVKNVAENEVKPINKGEEQIGFELVEKLFQGQLVLRTRCLECESLTERREDFQDISVPVQEDELSKVEESSEISPEPKTEMKTLRWAISQFASVERIVGEDKYFCENCHHYTEAERSLLFDKMPEVITIHLKCFAASGLEFDCYGGGLSKINTPLLTPLKLSLEEWSTKPTNDSYGLFAVVMHSGITISSGHYTASVKVTDLNSLEQSLKEYEGKWLLFDDSEVKVTEEKDFLNSLSPSTSPTSTPYLLFYKKL
chain 2: not shown
notes: USP1, human; Δ229–408, Δ608–737, L25A; as m12; UAF1, human; as m7; source: E. coli USP1^Δ1Δ2-L25A complexed with Sf21 Strep-UAF1, both purified; not shown: Strep11, N-terminal, kept
[4]
  binding result: binds

Reference: publication PMC6238601, “Specificity for deubiquitination of monoubiquitinated FANCD2 is driven by the N-terminus of USP1” (Life Science Alliance, 2018)
